Experimental data: patent publication US20230357348A1 (AstraZeneca / MedImmune, published 2023)
Starred links: 1 amine or outer side, 2 acyl side, 3 side chain; linkers in the order of their positions; H or OH if unused. Non-standard residues stand in square brackets, D forms with d. Groups on a side chain read outwards from the residue. No end group written: not given here. *: point of attachment. Trp(5-Br) = N[C@@H](Cc1c[nH]c2ccc(Br)cc12)C(=O)O; C20 diacid = O=C(O)CCCCCCCCCCCCCCCCCCC(=O)*; Bip = N[C@@H](Cc1ccc(-c2ccccc2)cc1)C(=O)O; C18 diacid = O=C(O)CCCCCCCCCCCCCCCCC(=O)*; γGlu = O=C(O)[C@H](CCC(=O)[*:2])N[*:1]; αMeF = C[C@](N)(Cc1ccccc1)C(=O)O; AEEA = NCCOCCOCC(=O)O; Aib = CC(C)(N)C(=O)O

Columns and labels:
[1] = target: human glucagon receptor (hGCGR) (human, UniProt P47871 26-477); assay: cell-based or functional assay
[2] = target: human GLP-1 receptor (hGLP-1R) (human, UniProt P43220 24-463); assay: cell-based or functional assay

Sequence of human glucagon receptor (hGCGR) (P47871 26-477): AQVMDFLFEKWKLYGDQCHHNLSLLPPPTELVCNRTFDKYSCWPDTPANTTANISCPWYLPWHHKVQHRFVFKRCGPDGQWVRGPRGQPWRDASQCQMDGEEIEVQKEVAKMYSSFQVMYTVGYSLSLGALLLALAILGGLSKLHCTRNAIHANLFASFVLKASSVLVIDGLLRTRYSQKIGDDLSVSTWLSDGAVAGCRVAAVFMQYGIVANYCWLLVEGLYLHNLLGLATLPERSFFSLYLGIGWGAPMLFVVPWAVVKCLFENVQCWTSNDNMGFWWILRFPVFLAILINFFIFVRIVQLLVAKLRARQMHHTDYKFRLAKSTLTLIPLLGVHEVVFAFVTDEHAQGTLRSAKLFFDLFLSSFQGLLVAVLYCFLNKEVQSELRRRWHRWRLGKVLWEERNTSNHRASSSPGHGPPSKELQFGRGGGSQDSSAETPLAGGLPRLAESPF

Row | hGluc-R EC50 (pM) [1] [pM] | hGLP-1R EC50 (pM) [2] [pM] | Binder
1 | 294 | 153 | H[Aib]QGTFTSDVSK[αMeF]LDSK([AEEA-AEEA-γGlu-C18 diacid])RAQDFVR[Trp(5-Br)]LL[Aib]E-OH (N-terminus assumed; SMILES CC(C)C[C@H](NC(=O)[C@H](Cc1c[nH]c2ccc(Br)cc12)NC(=O)[C@H](CCCNC(=N)N)NC(=O)[C@@H](NC(=O)[C@H](Cc1ccccc1)NC(=O)[C@H](CC(=O)O)NC(=O)[C@H](CCC(N)=O)NC(=O)[C@H](C)NC(=O)[C@H](CCCNC(=N)N)NC(=O)[C@H](CCCCNC(=O)COCCOCCNC(=O)COCCOCCNC(=O)CC[C@H](NC(=O)CCCCCCCCCCCCCCCCC(=O)O)C(=O)O)NC(=O)[C@H](CO)NC(=O)[C@H](CC(=O)O)NC(=O)[C@H](CC(C)C)NC(=O)[C@](C)(Cc1ccccc1)NC(=O)[C@H](CCCCN)NC(=O)[C@H](CO)NC(=O)[C@@H](NC(=O)[C@H](CC(=O)O)NC(=O)[C@H](CO)NC(=O)[C@@H](NC(=O)[C@H](Cc1ccccc1)NC(=O)[C@@H](NC(=O)CNC(=O)[C@H](CCC(N)=O)NC(=O)C(C)(C)NC(=O)[C@@H](N)Cc1c[nH]cn1)[C@@H](C)O)[C@@H](C)O)C(C)C)C(C)C)C(=O)N[C@@H](CC(C)C)C(=O)NC(C)(C)C(=O)N[C@@H](CCC(=O)O)C(=O)O) [Peptide 434]
2 | 68.8 | 7.43 | H[Aib]QGTFTSDVSK[αMeF]LDRK([AEEA-AEEA-γGlu-C18 diacid])RAQDFVRWLV[Aib]E-NH2 (N-terminus assumed; SMILES CC(C)C[C@H](NC(=O)[C@H](Cc1c[nH]c2ccccc12)NC(=O)[C@H](CCCNC(=N)N)NC(=O)[C@@H](NC(=O)[C@H](Cc1ccccc1)NC(=O)[C@H](CC(=O)O)NC(=O)[C@H](CCC(N)=O)NC(=O)[C@H](C)NC(=O)[C@H](CCCNC(=N)N)NC(=O)[C@H](CCCCNC(=O)COCCOCCNC(=O)COCCOCCNC(=O)CC[C@H](NC(=O)CCCCCCCCCCCCCCCCC(=O)O)C(=O)O)NC(=O)[C@H](CCCNC(=N)N)NC(=O)[C@H](CC(=O)O)NC(=O)[C@H](CC(C)C)NC(=O)[C@](C)(Cc1ccccc1)NC(=O)[C@H](CCCCN)NC(=O)[C@H](CO)NC(=O)[C@@H](NC(=O)[C@H](CC(=O)O)NC(=O)[C@H](CO)NC(=O)[C@@H](NC(=O)[C@H](Cc1ccccc1)NC(=O)[C@@H](NC(=O)CNC(=O)[C@H](CCC(N)=O)NC(=O)C(C)(C)NC(=O)[C@@H](N)Cc1c[nH]cn1)[C@@H](C)O)[C@@H](C)O)C(C)C)C(C)C)C(=O)N[C@H](C(=O)NC(C)(C)C(=O)N[C@@H](CCC(=O)O)C(N)=O)C(C)C) [Peptide 436]
3 | 96.9 | 26.9 | H[Aib]QGTFTSDVSK[αMeF]LDRK([AEEA-AEEA-γGlu-C20 diacid])RAQDFVRWLV[Aib]E-NH2 (N-terminus assumed; SMILES CC(C)C[C@H](NC(=O)[C@H](Cc1c[nH]c2ccccc12)NC(=O)[C@H](CCCNC(=N)N)NC(=O)[C@@H](NC(=O)[C@H](Cc1ccccc1)NC(=O)[C@H](CC(=O)O)NC(=O)[C@H](CCC(N)=O)NC(=O)[C@H](C)NC(=O)[C@H](CCCNC(=N)N)NC(=O)[C@H](CCCCNC(=O)COCCOCCNC(=O)COCCOCCNC(=O)CC[C@H](NC(=O)CCCCCCCCCCCCCCCCCCC(=O)O)C(=O)O)NC(=O)[C@H](CCCNC(=N)N)NC(=O)[C@H](CC(=O)O)NC(=O)[C@H](CC(C)C)NC(=O)[C@](C)(Cc1ccccc1)NC(=O)[C@H](CCCCN)NC(=O)[C@H](CO)NC(=O)[C@@H](NC(=O)[C@H](CC(=O)O)NC(=O)[C@H](CO)NC(=O)[C@@H](NC(=O)[C@H](Cc1ccccc1)NC(=O)[C@@H](NC(=O)CNC(=O)[C@H](CCC(N)=O)NC(=O)C(C)(C)NC(=O)[C@@H](N)Cc1c[nH]cn1)[C@@H](C)O)[C@@H](C)O)C(C)C)C(C)C)C(=O)N[C@H](C(=O)NC(C)(C)C(=O)N[C@@H](CCC(=O)O)C(N)=O)C(C)C) [Peptide 437]
4 | 1160 | 1380 | H[Aib]QGTFTSDVSK[αMeF]LDSK([AEEA-AEEA-γGlu-C18 diacid])RAQDFVR[Bip]LL[Aib]E-OH (N-terminus assumed; SMILES CC(C)C[C@H](NC(=O)[C@H](Cc1ccc(-c2ccccc2)cc1)NC(=O)[C@H](CCCNC(=N)N)NC(=O)[C@@H](NC(=O)[C@H](Cc1ccccc1)NC(=O)[C@H](CC(=O)O)NC(=O)[C@H](CCC(N)=O)NC(=O)[C@H](C)NC(=O)[C@H](CCCNC(=N)N)NC(=O)[C@H](CCCCNC(=O)COCCOCCNC(=O)COCCOCCNC(=O)CC[C@H](NC(=O)CCCCCCCCCCCCCCCCC(=O)O)C(=O)O)NC(=O)[C@H](CO)NC(=O)[C@H](CC(=O)O)NC(=O)[C@H](CC(C)C)NC(=O)[C@](C)(Cc1ccccc1)NC(=O)[C@H](CCCCN)NC(=O)[C@H](CO)NC(=O)[C@@H](NC(=O)[C@H](CC(=O)O)NC(=O)[C@H](CO)NC(=O)[C@@H](NC(=O)[C@H](Cc1ccccc1)NC(=O)[C@@H](NC(=O)CNC(=O)[C@H](CCC(N)=O)NC(=O)C(C)(C)NC(=O)[C@@H](N)Cc1c[nH]cn1)[C@@H](C)O)[C@@H](C)O)C(C)C)C(C)C)C(=O)N[C@@H](CC(C)C)C(=O)NC(C)(C)C(=O)N[C@@H](CCC(=O)O)C(=O)O) [Peptide 432]
5 | 160 | 24.4 | H[Aib]QGTFTSDVSK[αMeF]LDSK([AEEA-AEEA-γGlu-γGlu-C18 diacid])RAQDFVRWLEA[Aib]G-NH2 (N-terminus assumed; SMILES CC(C)C[C@H](NC(=O)[C@H](Cc1c[nH]c2ccccc12)NC(=O)[C@H](CCCNC(=N)N)NC(=O)[C@@H](NC(=O)[C@H](Cc1ccccc1)NC(=O)[C@H](CC(=O)O)NC(=O)[C@H](CCC(N)=O)NC(=O)[C@H](C)NC(=O)[C@H](CCCNC(=N)N)NC(=O)[C@H](CCCCNC(=O)COCCOCCNC(=O)COCCOCCNC(=O)CC[C@H](NC(=O)CC[C@H](NC(=O)CCCCCCCCCCCCCCCCC(=O)O)C(=O)O)C(=O)O)NC(=O)[C@H](CO)NC(=O)[C@H](CC(=O)O)NC(=O)[C@H](CC(C)C)NC(=O)[C@](C)(Cc1ccccc1)NC(=O)[C@H](CCCCN)NC(=O)[C@H](CO)NC(=O)[C@@H](NC(=O)[C@H](CC(=O)O)NC(=O)[C@H](CO)NC(=O)[C@@H](NC(=O)[C@H](Cc1ccccc1)NC(=O)[C@@H](NC(=O)CNC(=O)[C@H](CCC(N)=O)NC(=O)C(C)(C)NC(=O)[C@@H](N)Cc1c[nH]cn1)[C@@H](C)O)[C@@H](C)O)C(C)C)C(C)C)C(=O)N[C@@H](CCC(=O)O)C(=O)N[C@@H](C)C(=O)NC(C)(C)C(=O)NCC(N)=O) [Peptide 430]
6 | 144 | 15 | H[Aib]QGTFTSDVSK[αMeF]LDSK([AEEA-AEEA-γGlu-C18 diacid])RAQDFVRWLEA[Aib]G-NH2 (N-terminus assumed; SMILES CC(C)C[C@H](NC(=O)[C@H](Cc1c[nH]c2ccccc12)NC(=O)[C@H](CCCNC(=N)N)NC(=O)[C@@H](NC(=O)[C@H](Cc1ccccc1)NC(=O)[C@H](CC(=O)O)NC(=O)[C@H](CCC(N)=O)NC(=O)[C@H](C)NC(=O)[C@H](CCCNC(=N)N)NC(=O)[C@H](CCCCNC(=O)COCCOCCNC(=O)COCCOCCNC(=O)CC[C@H](NC(=O)CCCCCCCCCCCCCCCCC(=O)O)C(=O)O)NC(=O)[C@H](CO)NC(=O)[C@H](CC(=O)O)NC(=O)[C@H](CC(C)C)NC(=O)[C@](C)(Cc1ccccc1)NC(=O)[C@H](CCCCN)NC(=O)[C@H](CO)NC(=O)[C@@H](NC(=O)[C@H](CC(=O)O)NC(=O)[C@H](CO)NC(=O)[C@@H](NC(=O)[C@H](Cc1ccccc1)NC(=O)[C@@H](NC(=O)CNC(=O)[C@H](CCC(N)=O)NC(=O)C(C)(C)NC(=O)[C@@H](N)Cc1c[nH]cn1)[C@@H](C)O)[C@@H](C)O)C(C)C)C(C)C)C(=O)N[C@@H](CCC(=O)O)C(=O)N[C@@H](C)C(=O)NC(C)(C)C(=O)NCC(N)=O) [Peptide 429]
7 | 194 | 44.6 | H[Aib]QGTFTSDVSK[αMeF]LDTK([AEEA-AEEA-γGlu-γGlu-C18 diacid])RAQDFVAWLEA[Aib]G-NH2 (N-terminus assumed; SMILES CC(C)C[C@H](NC(=O)[C@H](Cc1c[nH]c2ccccc12)NC(=O)[C@H](C)NC(=O)[C@@H](NC(=O)[C@H](Cc1ccccc1)NC(=O)[C@H](CC(=O)O)NC(=O)[C@H](CCC(N)=O)NC(=O)[C@H](C)NC(=O)[C@H](CCCNC(=N)N)NC(=O)[C@H](CCCCNC(=O)COCCOCCNC(=O)COCCOCCNC(=O)CC[C@H](NC(=O)CC[C@H](NC(=O)CCCCCCCCCCCCCCCCC(=O)O)C(=O)O)C(=O)O)NC(=O)[C@@H](NC(=O)[C@H](CC(=O)O)NC(=O)[C@H](CC(C)C)NC(=O)[C@](C)(Cc1ccccc1)NC(=O)[C@H](CCCCN)NC(=O)[C@H](CO)NC(=O)[C@@H](NC(=O)[C@H](CC(=O)O)NC(=O)[C@H](CO)NC(=O)[C@@H](NC(=O)[C@H](Cc1ccccc1)NC(=O)[C@@H](NC(=O)CNC(=O)[C@H](CCC(N)=O)NC(=O)C(C)(C)NC(=O)[C@@H](N)Cc1c[nH]cn1)[C@@H](C)O)[C@@H](C)O)C(C)C)[C@@H](C)O)C(C)C)C(=O)N[C@@H](CCC(=O)O)C(=O)N[C@@H](C)C(=O)NC(C)(C)C(=O)NCC(N)=O) [Peptide 431]
